{
  "source": "patent US20250228957A1",
  "about": "(BIOHAVEN THERAPEUTICS, published 2025)",
  "binders": {"B1": {"name": "ABT030 (chimeric LALA PA mutant Km55 antibody) (antibody, human IgG1, kappa, L234A L235A, V domains shown)", "VH": "ELQLQESGPGLVKPSQSLSLTCSVTGYSIRSNYWGWIRKFPGNKMEWMGYITYSGGTYYNPSLKSRISITRDTSKNQFFLQLTSVTTEDTATYYCTRWGDWYFDFWGPGTKVTVSP", "VL": "DVVLTQTPPPLSVAIGQSVSISCKSSQSLVHTDGKTYLHWLLQSPGQSPKLLIYQVSNLGSGVPDRFSGTGSQKDFTLKISRVEAEDLGVYYCVQATHFPLTFGIGTKLELQR"}},
  "key": {"[1]": {"biological_target": "Deglycosylated IgA (dg-IgA) (human, UniProt P01876-1 1-353, Human serum IgA was treated with PNGase, neuraminidase, and galactosidase; conjugated to Alexa Fluor 594 in the cell uptake assays)", "sequence (P01876 other isoform, or with tags, fused parts or gaps)": "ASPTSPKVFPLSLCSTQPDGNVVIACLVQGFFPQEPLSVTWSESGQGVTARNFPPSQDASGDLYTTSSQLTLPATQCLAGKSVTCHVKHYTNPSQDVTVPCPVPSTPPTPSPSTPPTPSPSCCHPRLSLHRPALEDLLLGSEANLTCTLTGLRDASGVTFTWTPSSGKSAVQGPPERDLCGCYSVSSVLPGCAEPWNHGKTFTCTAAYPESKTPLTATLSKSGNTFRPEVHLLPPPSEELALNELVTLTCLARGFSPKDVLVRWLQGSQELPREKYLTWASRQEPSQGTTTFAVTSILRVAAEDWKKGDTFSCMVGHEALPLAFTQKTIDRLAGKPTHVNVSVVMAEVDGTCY", "test": "cell-based or functional assay"}, "[2]": {"biological_target": "Total IgA", "test": "cell-based or functional assay"}},
  "data": [
    {"binder": "B1", "values": [
      {"measurement": "EC50, Assay #1, uptake of A594-labelled cargo by HEK293 (+ASGPR) cells", "setting": "[1]", "result": 0.353, "unit": "nM"},
      {"measurement": "EC50, Assay #3, uptake of A594-labelled cargo by HEK293 (+ASGPR) cells", "setting": "[1]", "result": 3.53, "unit": "nM"},
      {"measurement": "S/N, Assay #1, uptake of A594-labelled cargo by HEK293 (+ASGPR) cells", "setting": "[1]", "result": 4.3, "unit": "signal-to-noise ratio"},
      {"measurement": "S/N, Assay #2, uptake of A594-labelled cargo by HEK293 (+ASGPR) cells", "setting": "[1]", "result": 3.7, "unit": "signal-to-noise ratio"},
      {"measurement": "S/N, Assay #3, uptake of A594-labelled cargo by HEK293 (+ASGPR) cells", "setting": "[1]", "result": 7.1, "unit": "signal-to-noise ratio"},
      {"measurement": "EC50, Assay #1, uptake of A594-labelled cargo by HEK293 (+ASGPR) cells", "setting": "[2]", "result": 7.15, "unit": "nM"}
    ]}
  ]
}
